In article PMC9424912:

Biological target: soluble CD8αα (human)
Experiment: SPR

Substance	Kd [µM]
HLA-A*02:01-NLV monomer (WT) (from UniProt P61769 21-119) (peptide-MHC)	228
soluble MR1-β2m-Ac-6-FP monomer (WT) (from UniProt Q95460 23-292; P61769 21-119) (complex)	177
